The results in this text go back to patent publication US20240360189A1.

In this assay the target is SLAMF7 (CS1, CD319, CRACC) on NK92MI cells (human) (UniProt Q9NQ25). In words: flow cytometry, cross-linking of violet-stained NK92MI cells with PKH26-stained P. aeruginosa RP73; controls without molecule 0.29 and 0.31.

B1: BiKE B′: ELO scFv [(RTX VL 10-first amino-acids/ELO (VL-VH)] anti-SLAMF7.C4bpβ.scFv (VL-VH) anti-Psl.FLAG (bispecific antibody, not shown: small tags and cut ends)
chain: RSQIVLSQSPAILSASVGDRVTITCKASQDVGIAVAWYQQKPGKVPKLLIYWASTRHTGVPDRFSGSGSGTDFTLTISSLQPEDVATYYCQQYSSYPYTFGQGTKVEIKGGSSRSSSSGGGGSGGGGEVQLVESGGGLVQPGGSLRLSCAASGFDFSRYWMSWVRQAPGKGLEWIGEINPDSSTINYAPSLKDKFIISRDNAKNSLYLQMNSLRAEDTAVYYCARPDGNYWYFDVWGQGTLVTVSSASGGGGSSGGGGSSGGGGSIQEAPKPECEKALLAFQESKNLCEAMENFMQQLKESGMTMEELKYSLELKKAELKAKLLSGGGGSSGGGGSSGGGGSDIQLTQSPSSLSASVGDRVTITCRASQSIRSHLNWYQQKPGKAPKLLIYGASNLQSGVPSRFSGSGSGTDFTLTISSLQPEDFATYYCQQSTGAWNWFGCGTKVEIKGGGGSGGGGSGGGGSGGGGSQVQLQESGPGLVKPSETLSLTCTVSGGSISPYYWTWIRQPPGKCLELIGYIHSSGYTDYNPSLKSRVTISGDTSKKQFSLKLSSVTAADTAVYYCARADWDRLRALDIWGQGTMVTVSS
modifications: Covalent homodimer through the cysteines of the C4bp beta fragment; one chain is given.
In turn, B1 returned a % colocalization (violet+PKH26+) of 1.85%.
